Results taken from patent US20070184522A1, “Cell death modulation via antagonists of Fasl and Fas activation” (University of Pittsburgh of the Commonwealth System of …, priority 2004, published 2007).

Tests used:
Hepa 1-6 cells = assay: Fas-induced apoptosis in Hepa 1-6 cells (LDH activity assay); format: cell-based, mouse; conditions: for FasL induced apoptosis: serum deprived Hepa 1-6 cells, crosslinked mouse Fas ligand 1 μg/ml overnight, LDH
Description: For FIG. 4a, Jurkat cells (1.5×10^5) were overnight treated in triplicate with 5 ng/ml of crosslinked human Fas ligand with or without 5 μg/ml of recombinant AlphaMet or 1 μg/ml of the indicated polypeptides. Percent apoptosis was determined by Trypan Blue staining using a hemocytometer. The data are representative and were repeated at least four times. […] The 17 kDa fragment of cleaved Caspase 3 is visualized by this antibody. The blot was reprobed for β-actin as a loading control. For FIG. 4c, serum deprived Hepa 1-6 cells (3×10^5) were overnight treated with 1 μg/ml of crosslinked mouse Fas ligand with or without AlphaMet or the indicated polypeptide. Media were collected and centrifuged to pellet the dead cells. […] The data in FIG. 4c represents three independent experiments.
Apoptosis assay. Pre-washed Jurkat cells in RPMI 1640 medium containing 1% FBS were inoculated in 96-wells at a density of 10^5 cells per well. Apoptosis was induced by cross-linked human Fas-ligand (R&D Systems) at a concentration of 0.5 ng/ml or Anti-Fas (human, activating) clone CH11 (Upstate biotechnology) at a concentration of 500 ng /ml. Hepa 1-6 cells were overnight starved before induction of apoptosis. The apoptosis in Hepa 1-6 was induced by anti-mouse Fas antibody Jo2 (200 ng/ml) or human recombinant Fas-ligand. The extent of cell viability and apoptosis was determined by several methods such as Trypan Blue stain, flow cytometry, LDH assay, and Hoechst staining.

[1] = system: liver (hepatocyte apoptosis); assay: Jo2 (Fas agonist) induced liver apoptosis in Balb/c mice; format: in vivo; conditions: for percentage of apoptotic cells by TUNEL staining: Balb/c mice liver, Jo2, AlphaMet 100 micrograms or YLGA polypeptides 300 micrograms per mouse; for enzymatic activity of caspase-3 in liver lysates: compared to Jo2 only group
Description: For FIG. 5a, Balb/c mice (10 per group) were injected with Jo2 (2.5 μg/g of mouse body weight) in the presence of AlphaMet or polypeptides as indicated, and analyzed for the extent of hepatocyte apoptosis and liver damage by immunohisological and biochemical techniques. The percentage of TUNEL positive was determined in multiple liver lobes of each liver in random fields counting at least 500 hepatocytes in a double-blind manner. Frame A: Normal mouse liver; Frame B: Jo2 treated mouse liver; Frame C: Jo2 plus AlphaMet treated mouse; Frame D: Jo2 plus YLGA 12 mer; Frame E: Jo2 and YLGA tetramer treatment; Frame F: Jo2 and YLGA mutated AlphaMet, respectively. These studies were repeated three times with identical outcome. FIG. 5b graphically presents the quantification of hepatocyte apoptosis TUNEL positive nuclei. The data were analyzed by One-way ANOVA and P<0.05 was considered significant. For FIG. 5c, an equal amount of livers were subjected to Caspase 3 activity assay using DEVD-AFC as a substrate and DEVD-CHO as an inhibitor, as recommended by the manufacturer. The data are the mean and SE and were repeated in three independent experiments. The data were analyzed by One-way ANOVA and P<0.05 was considered significant.
Animal studies. Male Balb/c mice weighing 30 grams were purchased from Jackson Laboratory and used according to an IACUC approved protocol. Induction of liver apoptosis and determination of Caspase 3 activity and histological evaluation were performed as described previously (Wang et al., 2002). Animals (10 per group) were anesthetized by isoflurane and injected with Jo2 (Pharmingen 2.5 microgram/gram body weight) with or without AlphaMet (100 micrograms recombinant AlphaMet or 300 micrograms of synthetic YLGA polypeptides) in a total of 100 micro liters of saline per mouse. Control groups (N=10 per group) consisted of saline only, Jo2 only, and Jo2 plus mutated AlphaMet or scrambled polypeptide. During the experiment which lasted approximately 6 hours, animals were closely monitored every 10 to 15 minutes and if they appeared to be moribund were immediately sacrificed and liver tissue and was removed for biochemical and histological studies.
It is well known in the literature that the liver is one of the most sensitive organs to Fas mediated apoptosis. Injection of the Fas agonist Jo2 antibody, which causes mice to experience Fas aggregation resulting in massive hepatocyte apoptosis, fulminant hepatic failure, and death within hours. This model was used to test if AlphaMet and the YLGA polypeptides could protect livers from Fas-induced apoptosis. Given the fact that AlphaMet blocked Fas trimerization and Fas micro-aggregation, and the fact that Fas oligomerization is essential in Fas signaling, it was reasonable to suspect that AlphaMet could block the Fas mediated apoptosis in vivo. Balb/c mice were used in these experiments. Groups of animals (n=10) were injected systemically with Jo2 ([…] of body weight) with or without purified recombinant AlphaMet, synthetic 12 mer YLGA polypeptide (HHIYLGATNYIY, SEQ ID NO:26), or their control counterparts (N-terminally truncated AlphaMet, YLGA mutated recombinant AlphaMet or scrambled 12 mer polypeptide) as described in the materials and methods. Mice were sacrificed within 6 hours or sooner if they were moribund and their livers were subjected to biochemical determination of Caspase-3 activity and histological analyses (i.e. TUNEL staining).

Molecule | FasL induced apoptosis (Hepa 1-6 cells) | percentage of apoptotic cells by TUNEL staining [1] [%] | enzymatic activity of caspase-3 in liver lysates ([1]; Balb/c mice) | apoptosis induced by the Fas agonist Jo2 (Hepa 1-6 cells; Hepa 1-6 cells) | resistance to Fas killing of stable cell lines expressing the protein (Hepa 1-6 cells; Hepa 1-6 stable lines versus control vector clones) | liver hemorrhage (gross and microscopic) ([1]; Balb/c mice, Jo2 injection, within 6 hours)
YLGA [YLGA 4 mer] | significantly inhibited FasL induced apoptosis | 40 | – | – | – | –
HHIYLGATNYIY [12 mer] | significantly inhibited FasL induced apoptosis | 25 | significant reduction | – | – | –
alpha subunit of Met (AlphaMet), amino acid residues 1 to 306, His-tagged (receptor, mouse) MKAPTVLAPGILVLLLSLVQRSHGECKEALVKSEMNVNMKYQLPNFTAETPIQNVVLHGHHIYLGATNYIYVLNDKDLQKVSEFKTGPVLEHPDCLPCRDCSSKANSSGGVWKDNINMALLVDTYYDDQLISCGSVNRGTCQRHVLPPDNSADIQSEVHCMFSPEEESGQCPDCVVSALGAKVLLSEKDRFINFFVGNTINSSYPPGYSLHSISVRRLKETQDGFKFLTDQSYIDVLPEFLDSYPIKYIHAFESNHFIYFLTVQKETLDAQTFHTRIIRFCSVDSGLHSYMEMPLECILTEKRRKRHHHHHH | significantly inhibited FasL induced apoptosis | 18 | significant reduction | efficiently inhibited | dramatic resistance to Fas killing | little or no sign of hemorrhage
